Assay results: US20250011363A1, “OPTIMIZED SHORTENED PEPTIDE THAT BINDS TO ACETYLCHOLINE RECEPTOR, AND USE THEREOF” (SKINMED CO., LTD., priority 2021, published 2025)

Target: acetylcholine receptor
Assay: SPR, AchR immobilized on chip

| Binding affinity (RU) | Binder |
| --- | --- |
| 194 | RWRYKR [6mer-2-136] |
| 23 | KSLLR [5mer-ND] |

Second part, the binder before the results:

| Binder | Binding affinity (RU) |
| --- | --- |
| RSYSR [5mer-311] | 167 |
| RRGVRR [6mer-1-210] | 184 |
| RKSLLR [Spep 6mer] | 35 |
| RRQRR [5mer-73] | 179 |

Target: acetylcholine receptor
Assay: SPR, peptide at 10 µM on acetylcholine receptor

| Binding affinity (RU) | Binder |
| --- | --- |
| 179 | RRQRR [5mer-73] |

Target: acetylcholine receptor
Assay: SPR, receptor immobilized, peptide 10 uM

| Binding affinity [RU] | Binder |
| --- | --- |
| 194 | RWRYKR [6mer-2-136] |

Target: acetylcholine receptor
Assay: SPR, AchR immobilised on chip, peptide 10 uM

| Binding affinity (RU) | Binder |
| --- | --- |
| 184 | RRGVRR [6mer-1-210] |

Target: acetylcholine receptor
Assay: SPR, AchR on chip, peptide 10 uM

| Binding affinity (RU) | Binder |
| --- | --- |
| 167 | RSYSR [5mer-311] |

Target: acetylcholine receptor
Assay: SPR, peptide at 10 uM over immobilized acetylcholine receptor

| Binding affinity (RU) | Binder |
| --- | --- |
| 153 | KSQLKK [6mer-2-110] |
| 139 | KQRYKK [6mer-2-84] |
| 28 | RRATER [6mer-1-1198] |
| 139 | KVYQKK [6mer-2-102] |
| 121 | KLQYRK [6mer-2-114] |
| 136 | RWIYKR [6mer-2-74] |
| 135 | KRYLKR [6mer-2-78] |
| 154 | RLICRK [6mer-2-101] |
| 126 | KLQRKK [6mer-2-116] |
| 145 | KRYSRK [6mer-2-113] |
| 139 | KLYCKK [6mer-2-132] |
| 133 | KLYTRK [6mer-2-75] |
| 148 | RLFQRK [6mer-2-134] |
| 123 | RWVQRK [6mer-2-106] |
| 142 | KVQLRR [6mer-2-125] |
| 148 | RRQYKR [6mer-2-80] |
| 139 | RSISKK [6mer-2-119] |
| 144 | KWQYRK [6mer-2-115] |
| 122 | RGVCRR [6mer-2-130] |
| 126 | KQFRRK [6mer-2-86] |
| 151 | RGFTRR [6mer-2-105] |

Second part, the binder before the results:

| Binder | Binding affinity (RU) |
| --- | --- |
| RQRSRR [6mer-2-99] | 151 |
| RWFYKK [6mer-2-135] | 124 |
| RLYTKR [6mer-2-73] | 139 |
| KQVYKR [6mer-2-71] | 141 |
| KRIQKK [6mer-2-72] | 144 |
| KWFSRR [6mer-2-118] | 135 |
| KRYTRK [6mer-2-117] | 148 |
| RRQQRR [6mer-2-98] | 148 |
| RQFYRK [6mer-2-97] | 154 |
| RLQQKR [6mer-2-112] | 142 |
| RLYQRK [6mer-2-94] | 126 |
| KSFQRR [6mer-2-88] | 141 |
| RRRCRR [6mer-2-100] | 142 |
| KSVLRK [6mer-2-129] | 139 |
| RVITKK [6mer-2-122] | 125 |
| RRIYRK [6mer-2-95] | 142 |
| RRQSRK [6mer-2-76] | 142 |
| RVVYKK [6mer-2-108] | 153 |
| KRLLRK [6mer-2-70] | 126 |
| KWQLKR [6mer-2-124] | 126 |
| RGVQKK [6mer-2-82] | 124 |
| KSRSKK [6mer-2-89] | 141 |
| RRLTKR [6mer-2-87] | 142 |
| RQLSKR [6mer-2-79] | 135 |
| KQQTKR [6mer-2-131] | 148 |

| Binder | Binding affinity (RU) |
| --- | --- |
| KQQTRR [6mer-2-77] | 123 |
| RLYLRK [6mer-2-127] | 136 |
| KSQYKR [6mer-2-85] | 137 |
| RRVYRK [6mer-2-109] | 144 |
| KGRTKR [6mer-2-90] | 133 |
| KRRLKK [6mer-2-133] | 145 |
| KLIRRK [6mer-2-111] | 123 |
| KRVYRK [6mer-2-121] | 137 |
| KVVCKR [6mer-2-92] | 131 |
| RKACEK [6mer-1-1200] | 21 |
| RWQTRR [6mer-2-93] | 133 |
| RGVCRK [6mer-2-104] | 145 |
| KKTNKR [6mer-1-1199] | 39 |
| KSYYRR [6mer-2-128] | 147 |
| KWFLRK [6mer-2-69] | 139 |
| RVVTKK [6mer-2-103] | 136 |
| KWRQRK [6mer-2-96] | 154 |
| RRQCRK [6mer-2-120] | 146 |
| RRVSRR [6mer-2-81] | 121 |
| RGVYRK [6mer-2-107] | 144 |
| KWLYRR [6mer-2-126] | 148 |
| KQYQRR [6mer-2-83] | 135 |
| RQFTKR [6mer-2-123] | 146 |
| KWIYKR [6mer-2-91] | 121 |
